According to patent US20100226985A1, “VISCOELASTIC AQUEOUS GELS COMPRISING MICROSPHERES” (priority 2006, published 2010):

Assay: Lysozyme release from viscoelastic gels into release buffer (BCA protein assay)
Type: physicochemical
Conditions: after approximately one month; gel solid content 15 wt.-%, DS 4 and 8, lysozyme 1 wt.-% in buffer; release buffer Hepes pH 7
Procedure: Viscoelastic gel compositions with a solid content of 15 wt.-% comprising lysozyme as a model active compound were prepared by dispersing equal amounts of dex-HEMA-L-lactate and dex-HEMA-D-lactate microspheres (DS 4 and 8) in lysozyme-containing (1 wt.-%) aqueus buffer solution. The microparticles were allowed to hydrate overnight at 4° C. Viscoelastic gels were formed which were then tested for lysozyme release using the method described by Van Tomme et al. JCR 2005; 110:67-78. In short, samples of 500 mg of the gels were transferred in a release device and 3 mL release buffer (Hepes, pH 7, 100 mM, 150 mM NaCl, 0.02% NaN3). At certain time intervals, samples were taken and analysed for their protein content using a BCA® protein assay. After approximately one month, about 80% of the entrapped lysozyme was released. No significant difference could be detected between the two batches (i.e. with DS 4 and DS 8) were observed.

Question: For lysozyme, which entrapped lysozyme released is on record?
Answer: The entrapped lysozyme released was “about 80%”.
